Data from publication PMC2880831.

Biological target: EGR1 (UniProt P18146 1-543)
Assay: EMSA

Sequence of EGR1 (P18146 whole entry): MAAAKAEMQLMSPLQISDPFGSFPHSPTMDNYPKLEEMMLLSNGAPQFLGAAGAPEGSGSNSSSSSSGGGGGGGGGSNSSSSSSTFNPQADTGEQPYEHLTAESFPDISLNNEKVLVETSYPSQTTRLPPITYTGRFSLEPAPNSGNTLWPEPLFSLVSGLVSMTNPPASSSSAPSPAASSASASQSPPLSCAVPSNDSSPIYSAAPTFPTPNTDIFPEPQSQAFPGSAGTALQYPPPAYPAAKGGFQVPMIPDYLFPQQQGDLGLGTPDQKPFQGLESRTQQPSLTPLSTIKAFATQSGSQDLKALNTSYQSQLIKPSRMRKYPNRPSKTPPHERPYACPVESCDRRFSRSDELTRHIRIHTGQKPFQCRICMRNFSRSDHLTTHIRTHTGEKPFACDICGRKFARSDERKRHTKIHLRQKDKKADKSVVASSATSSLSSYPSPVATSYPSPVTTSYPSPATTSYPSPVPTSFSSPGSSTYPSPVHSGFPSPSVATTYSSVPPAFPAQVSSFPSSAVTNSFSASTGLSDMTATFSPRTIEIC

B1: FAP promoter WT -225~-205 (dsDNA)
DNA 1: CAAGAACGCCCCCAAAATCT
DNA 2: AGATTTTGGGGGCGTTCTTG
B1: binds.
